Consider 8 molecules from patent US20260049141A1 (OSE IMMUNOTHERAPEUTICS, published 2026).

Assay [1] has as its target T1, Recombinant human CD28 (bio-techne, reference 342-CD-200) (human, UniProt P10747 19-152).
T1 construct: Bought protein; also called hCD28 recombinant protein; human recombinant CD28 protein
The assay can be described thus: SPR (Biacore T200), hCD28 immobilized on CM5, antibody flowed at 0-3000 nM, bivalent model fit. On the procedure:
(§1) hCD28 recombinant protein (bio-techne, reference 342-CD-200) was immobilized to the CM5 sensorship at 20 ug/mL in Na Acetate pH5 in the Biacore T200. […] The antigen-antibody association kinetics was followed for 2 minutes, and the dissociation kinetics was followed for 10 minutes. The association and dissociation curves were fit to a bivalent model.

Assay [2] addresses Human CD28 expressed on Jurkat T cells (human, UniProt P10747 19-220). The assay can be described thus: cell-based or functional assay.
The target of assay [3] is T1, Recombinant human CD28 (bio-techne, …). The assay can be described thus: SPR (Biacore T200), hCD28 immobilized on CM5, antibody flowed; monovalent anti-CD28 scFv (Format B1), not the bivalent anti-CD28 antibody. The procedure:
as §1

Assay [4] has as its target T2, Biotinylated human PD-1 (AcroBiosystems, reference EP-101) (human, UniProt Q15116 25-167, biotinylated).
T2 construct: Kit reagent; called both biotinylated Human PD1 and Biotin-PD-1Fc; also called Biotin-PD-1Fc; not described
The assay can be described thus: competitive ELISA: recombinant human PD-L1 immobilized, antibody mixed with a fixed concentration of biotinylated human PD-1, streptavidin-peroxidase; blocked ligand PD-L1. On the procedure:
(A) PD-1 binding ELISA assay. […] Revelation was performed using an anti-human Fc antibody coupled to peroxidase. Colorimetry was determined at 450 nm using TMB substrate. Data were normalized by the condition anti-PD-1*2 or anti-PD-1*1 at 20 nM; considered as 100% of binding for bivalent and monovalent figure respectively. N=2 independent experiments per condition. (B) Antagonist PD-1/PDL1 ELISA assay. […] Revelation was performed with a streptavidin coupled to peroxidase. Colorimetry was determined at 450 nm using TMB substrate. Percentage of antagonist activity was determined by the formula 100-((DO450 nM*100)/DO450 nM No Ab). N=2 independent experiments. (C) CD28 binding MSD assay. […] Revelation was performed with an anti-human Fc antibody coupled to SulfoTag. Electric signal was determined using MSD system. (D) Cis-activity Jurkat T cell-based bioassay. […] IL-2 secretion was quantified in the culture supernatant after 48 hours of stimulation and data were normalized by the condition without antibody. N=2-7 independent experiments.
(In general: ELISA stands for enzyme-linked immunosorbent assay.)

T2 sequence (Q15116 25-167): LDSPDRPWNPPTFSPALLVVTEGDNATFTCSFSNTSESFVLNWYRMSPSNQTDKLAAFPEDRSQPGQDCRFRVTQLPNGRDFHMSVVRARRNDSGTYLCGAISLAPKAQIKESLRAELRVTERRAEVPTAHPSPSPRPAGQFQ

B1: anti-CD28 bivalent clone 1 antibody with no anti-PD-1 valency (antibody, V domains shown)
VH: QVKLQESGPGLVAPSQSLSITCTVSGFSLTSYGVYWVRQPPGKGLEWLGVIWAGGSTNYNSALMSRLSISKDNSKSQVFLKMNSLQTDDTAMYYCARDHYGSYGDYYAMDYWGQGTTVTVSS
VL: DIVLTQSPASLAVSLGQRATISCRASESVEYYDTSLMQWYQQKPGQPPKLLIYAASSVESGVPARFSGSGSGTDFSLNIHPVEEDDIAMYFCQQSRKVPWTFGGGTKLEIK
notes: also called bivalent anti-CD28 antibody; Bivalent anti-CD28 (positive control)
A word on the koff: it is the first-order rate constant of dissociation. As a reminder, the kon is the second-order rate constant of association. For the molecule B1, in assay [1], the Kd was 75 nM, the koff was determined as 0.000842 s⁻¹ and the kon was 11200 M⁻¹ s⁻¹.

B2: Format B1 anti-PD-1*1/anti-CD28*1 scFv clone 2 (bispecific antibody)
chain 1: not shown
chain 2: PAPELLGGPSVFLFPPKPKDTLMISRTPEVTCVVVDVSHEDPEVKFNWYVDGVEVHNAKTKPREEQYASTYRVVSVLTVLHQDWLNGKEYKCKVSNKALPAPIEKTISKAKGQPREPQVYTLPPCRDELTKNQVSLWCLVKGFYPSDIAVEWESNGQPENNYKTTPPVLDSDGSFFLYSKLTVDKSRWQQGNVFSCSVMHEALHNHYTQKSLSLSPGK
VL: DVVMTQSPLSLPVTLGQPASISCRSSQSLVHANTNTYLEWYQQRPGQSPRLLIYKVSNRFSGVPDRFSGSGSGTDFTLKISRVEAEDVGVYYCFQGTHVPNTFGQGTKLEIK
Take B2: the “IL-2 secretion by PD-1 negative Jurkat T cells (cis-activity bioassay, 100 nM), fold versus no antibody” value in assay [2] was 4 fold.

B3: Anti PD-1*1/anti CD28*1 scFv Format B1 (anti-PD-1 clone 1 / anti-CD28 clone 1) (bispecific antibody, V domains shown)
VH 1: QIQLVQSGSELKKPGASVKVSCKASGYTFTHYAMNWVRQAPGQGLEWMGWINTNTGEPTYAQGFTGRFVFSLDTSVSTAYLQISSLKAEDTAVYYCAREREPGMDNWGQGTLVTVSS
VL 1: B2 VL
VH 2: B1 VH
VL 2: B1 VL
notes: Only the variable domains are tied to the molecule by name; also called anti PD-1/anti CD28 (Format B1); anti-PD-1*1/anti-CD28*1 scFv clone 1
For the molecule B3, in assay [1], the Kd was 5400 nM, the koff was 0.0249 s⁻¹ and the kon was 4620 M⁻¹ s⁻¹. The Kd in assay [3] was ~5000 nM. Further, the “IC50 (read off the curve)” value in assay [4] was ~1 nM.

B4: anti-PD-1/anti-CD28 multifunctional molecule Format C1 (bivalent anti-PD-1 antibody fused to an anti-CD28 scFv, clone 1) (bispecific antibody, V domains shown)
VH 1: B3 VH 1
VL 1: B2 VL
VH 2: B1 VH
VL 2: B1 VL
notes: Full chains not tied to the label in the text
For B4, the “IC50 (read off the curve)” value in assay [4] is ~1 nM.

B5: anti-PD-1/anti-CD28 multifunctional molecule Format C2 (bivalent anti-PD-1 antibody fused to an anti-CD28 scFv, clone 1) (bispecific antibody, V domains shown)
VH 1: B3 VH 1
VL 1: B2 VL
VH 2: B1 VH
VL 2: B1 VL
notes: See Format C1; full chains not tied to the label in the text
On to B5, for which, in assay [4], the “IC50 (read off the curve)” value was ~2 nM.

B6: anti-PD-1/anti-CD28 multifunctional molecule Format B3 (scFv anti-CD28 fused to C-terminal of monovalent anti-PD1, clone 1) (bispecific antibody, V domains shown)
VH 1: B3 VH 1
VL 1: B2 VL
VH 2: B1 VH
VL 2: B1 VL
Turning to B6, the “IC50 (read off the curve)” value in assay [4] was ~1 nM.

B7: anti-PD-1/anti-CD28 multifunctional molecule Format C5 (scFv anti-CD28 fused to C-terminal of bivalent anti-PD1, clone 1) (bispecific antibody, V domains shown)
VH 1: B3 VH 1
VL 1: B2 VL
VH 2: B1 VH
VL 2: B1 VL
In the case of B7, the “IC50 (read off the curve)” value in assay [4] was ~0.3 nM.

B8: Format B1 anti-PD-1*1/anti-CD28*1 scFv clone 3 (bispecific antibody)
chain 1: not shown
chain 2: B2 chain 2
VL: B2 VL
As for B8, the “IL-2 secretion by PD-1 negative Jurkat T cells (cis-activity bioassay, 100 nM), fold versus no antibody” value in assay [2] is 2 fold.
